Measurements from article PMC7568657, “SppI Forms a Membrane Protein Complex with SppA and Inhibits Its Protease Activity in Bacillus subtilis” (mSphere, 2020).
Values joined by “and” are separate entries in the source; they are usually repeats but may differ in a detail not shown here. Identical values can stand only once.

Columns and labels:
SppI-SPA (B. subtilis) = SppI-SPA (B. subtilis) (UniProt O34424); assay: affinity purification with mass spectrometry; tandem affinity purification of SppI-SPA (calmodulin resin, then anti-FLAG resin) from B. subtilis membranes in 10 mM Tris-Cl pH 7.5, 150 mM NaCl, 1% DDM, 4°C; LC-MS/MS; two independent experiments
[1] = target: the molecule itself; assay: SEC; gel filtration of affinity-purified proteins on Superdex 200 GL 10/300; apparent sizes against MW markers

Row | stoichiometry N (SppA per SppI (by the PAI values)) (SppI-SPA (B. subtilis)) | Molecule | stoichiometry N [1]
1 | 1 and 2 | SppA (from UniProt O34525 1-335) (enzyme) | 
2 |  | 6×His-SppA (enzyme, B. subtilis, UniProt O34525 1-335, looked up, SppA, membrane protease of Bacillus subtilis, amplified from BSB1 chromosomal DNA; Purified alone it gave at least three bands of 32 to 34 kDa (C-terminal domain partly self-cleaved); purified with SppI the major band was about 36 kDa and still held most of the C terminus; source: E. coli ER2566, purified from the cytoplasmic membrane fraction (1% DDM, Ni-NTA, gel filtration); not shown: 6×His, …) MNAKRWIALVIALGIFGVSIIVSISMSFFESVKGAQTDLTSLTDESQEKTLENGSPSSKIAVLEVSGTIQDNGDSSSLLGADGYNHRTFLKNLERAKDDKTVKGIVLKVNSPGGGVYESAEIHKKLEEIKKETKKPIYVSMGSMAASGGYYISTAADKIFATPETLTGSLGVIMESVNYSKLADKLGISFETIKSGAHKDIMSPSREMTKEEKNIMQSMVDNSYEGFVDVISKGRGMPKAEVKKIADGRVYDGRQAKKLNLVDELGFYDDTITAMKKDHKDLKNASVISYEESFGLGSLFSMGANKMFKSEIDFLNMREILSQSGSPRMMYLYAK | 8
3 |  | 6×His-SppA^K199A (enzyme, B. subtilis, UniProt O34525 1-335, looked up, SppA, membrane protease of Bacillus subtilis, with the active-site mutation K199A; band of about 36 kDa; not shown: 6×His, N-terminal, kept) MNAKRWIALVIALGIFGVSIIVSISMSFFESVKGAQTDLTSLTDESQEKTLENGSPSSKIAVLEVSGTIQDNGDSSSLLGADGYNHRTFLKNLERAKDDKTVKGIVLKVNSPGGGVYESAEIHKKLEEIKKETKKPIYVSMGSMAASGGYYISTAADKIFATPETLTGSLGVIMESVNYSKLADKLGISFETIKSGAHADIMSPSREMTKEEKNIMQSMVDNSYEGFVDVISKGRGMPKAEVKKIADGRVYDGRQAKKLNLVDELGFYDDTITAMKKDHKDLKNASVISYEESFGLGSLFSMGANKMFKSEIDFLNMREILSQSGSPRMMYLYAK | 8
4 |  | SppI-FLAG (natural protein, B. subtilis, UniProt O34424 1-164, looked up, SppI (formerly YteJ), membrane protein of Bacillus subtilis; not shown: FLAG, C-terminal, kept) MDATYEELERNDIKGPQEAELLTHAYAGFWVRFWAFLLDWLVIWGLNHLLVSPLFTVLDLPKTSGMFTFSAYSVTTLIVYLAYFALMTKYFRQTLGKMVFGLKVVSVKQDSKLTWSTVIFREVVGRYIDKIWILYIVVAFSPTKQGIHDYIADTTVVHEKLYRK | 8
5 |  | 6×His-SppI (natural protein, B. subtilis, UniProt O34424 1-164, looked up, SppI (formerly YteJ), membrane protein of Bacillus subtilis, amplified from BSB1 chromosomal DNA; source: E. coli ER2566, purified from the membrane fraction (1% DDM, Ni-NTA, gel filtration); not shown: 6×His, N-terminal, kept) MDATYEELERNDIKGPQEAELLTHAYAGFWVRFWAFLLDWLVIWGLNHLLVSPLFTVLDLPKTSGMFTFSAYSVTTLIVYLAYFALMTKYFRQTLGKMVFGLKVVSVKQDSKLTWSTVIFREVVGRYIDKIWILYIVVAFSPTKQGIHDYIADTTVVHEKLYRK | 8
